{"source": "paper PMC1351370", "key": {"[1]": {"molecular_target": "T1, HIV-1 nucleocapsid protein NC (wild type) (HIV-1 pNL4-3, UniProt P12493 378-432)", "experiment": "competition"}, "[2]": {"molecular_target": "T1, HIV-1 nucleocapsid protein NC (wild …)", "experiment": "competition", "remark": "listed apart in the source"}, "[3]": {"molecular_target": "T1, HIV-1 nucleocapsid protein NC (wild …)", "experiment": "tryptophan fluorescence quenching"}, "[4]": {"molecular_target": "T1, HIV-1 nucleocapsid protein NC (wild …)", "experiment": "tryptophan fluorescence quenching", "remark": "listed apart in the source"}, "[5]": {"molecular_target": "T1, HIV-1 nucleocapsid protein NC (wild …)", "experiment": "SPR"}}, "note": "Like-named read-outs stand apart in the source and are kept apart here."}
{"binder": "TGTGTGTGTGTGTGTGTGTG (ssDNA)", "note": "[(TG)10]", "values": [{"measurement": "IC50", "setting": "[1]", "value": "37 ± 2.73", "unit": "nM"}]}
{"binder": "TGTGTGTG (ssDNA)", "note": "[(TG)4]", "values": [{"measurement": "IC50", "setting": "[2]", "value": "264 ± 101", "unit": "nM"}, {"measurement": "Kd", "setting": "[3]", "value": "4.7 ± 0.67", "unit": "nM"}, {"measurement": "Kd", "setting": "[4]", "value": "3.4 ± 0.07", "unit": "nM"}]}
{"binder": "AAAAAAAA (ssDNA)", "note": "[(A)8]", "values": [{"measurement": "binding result", "setting": "[5]", "value": "no binding"}]}
{"binder": "AAAAAAAAAAAAAAAAAAAAAAAAAAAAAA (ssDNA)", "note": "[(A)30]", "values": [{"measurement": "IC50", "setting": "[1]", "value": "6680 ± 785", "unit": "nM"}]}
